These results are taken from patent publication US20200055939A1 (Genentech, published 2020).

Where a chain is given by its changes, count along the chain named.

Broadly, the Kd is the equilibrium constant for the complex coming apart. A low value points to higher affinity. Usually % Inhibition stands for how much of the control response was suppressed. A higher % Inhibition goes with strong suppression.

Experiment [1] concerns the target T1, MICB005.His (human MICB*005 alpha 3 domain, His tagged) (human).
T1 construct: also called huMICB*005 alpha 3-his
T1 chain: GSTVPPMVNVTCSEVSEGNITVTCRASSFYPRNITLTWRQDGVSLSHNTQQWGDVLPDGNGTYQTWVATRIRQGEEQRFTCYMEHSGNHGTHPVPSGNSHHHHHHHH
Kind of experiment: ELISA, coated antigen.

The target of experiment [2] is MICA*004 on HCC1534 cells (human, UniProt Q29983 24-383). The experiment can be described thus: cell-based or functional assay.
Experiment [3] deals with T2, MICA*008 on MEL-JUSO cells (human, UniProt Q29983 24-317).
T2 chain: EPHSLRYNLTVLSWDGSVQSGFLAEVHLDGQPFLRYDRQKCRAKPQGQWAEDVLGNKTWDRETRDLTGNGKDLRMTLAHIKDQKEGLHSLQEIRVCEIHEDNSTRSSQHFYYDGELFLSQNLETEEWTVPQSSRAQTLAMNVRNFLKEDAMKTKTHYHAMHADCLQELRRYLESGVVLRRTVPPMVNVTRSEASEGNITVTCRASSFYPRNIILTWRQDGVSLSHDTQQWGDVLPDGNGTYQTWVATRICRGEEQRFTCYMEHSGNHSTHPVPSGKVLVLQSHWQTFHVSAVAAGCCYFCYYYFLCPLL
Kind of experiment: cell-based or functional assay.

Experiment [4] deals with T3, MICA.008.a3.R202-S297.R202N mIgG2a.Glyco11 (human; mouse, UniProt Q29983 203-297, engineered N-linked glycosylation site R202N).
T3 construct: not shown: murine IgG2a Fc
T3 chain: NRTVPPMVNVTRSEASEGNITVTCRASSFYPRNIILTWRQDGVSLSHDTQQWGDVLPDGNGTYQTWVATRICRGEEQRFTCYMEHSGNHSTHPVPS
Kind of experiment: ELISA, coated variant.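 Note: ELISA with plates coated at 2 ug/ml with MICA*008 alpha 3 glycosylation variants as murine IgG2a Fc fusions, antibody binding detected by HRP anti-human IgG Fc and TMB absorbance.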

In experiment [5] the target is T4, MICA.008.a3.T204-S297.E215N.mIgG2a.Glyco12 (human; mouse, UniProt Q29983 204-297, engineered N-linked glycosylation site E215N).
T4 construct: not shown: murine IgG2a Fc
T4 chain: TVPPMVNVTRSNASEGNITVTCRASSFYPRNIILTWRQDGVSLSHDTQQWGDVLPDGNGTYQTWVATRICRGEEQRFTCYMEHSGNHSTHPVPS
Kind of experiment: ELISA, coated variant. (In general: ELISA stands for enzyme-linked immunosorbent assay.)

Experiment [6] addresses T5, MICA.008.a3.T204-S297.R279N.mIgG2a.Glyco16 (human; mouse, UniProt Q29983 204-297, engineered N-linked glycosylation site R279N).
T5 construct: not shown: murine IgG2a Fc
T5 chain: T4 chain with N12E, R76N
The experiment can be described thus: ELISA, coated variant.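 Note: ELISA with plates coated at 2 ug/ml with MICA*008 alpha 3 glycosylation variants as murine IgG2a Fc fusions, antibody binding detected by HRP anti-human IgG Fc and TMB absorbance.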

The target of experiment [7] is T6, MICA.008.a3.T204-S297.G243N.mIgG2a.Glyco14 (human; mouse, UniProt Q29983 204-297, engineered N-linked glycosylation site G243N).
T6 construct: not shown: murine IgG2a Fc
T6 chain: T4 chain with N12E, G40N
Kind of experiment: ELISA, coated variant.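 Note: ELISA with plates coated at 2 ug/ml with MICA*008 alpha 3 glycosylation variants as murine IgG2a Fc fusions, antibody binding detected by HRP anti-human IgG Fc and TMB absorbance.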

For experiment [8], the target named is T7, MICA.008.a3.T204-S297.I236T.mIgG2a.Glyco13 (human; mouse, UniProt Q29983 204-297, engineered N-linked glycosylation site created by I236T).
T7 construct: not shown: murine IgG2a Fc
T7 chain: T4 chain with N12E, I33T
Kind of experiment: ELISA, coated variant.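 Note: ELISA with plates coated at 2 ug/ml with MICA*008 alpha 3 glycosylation variants as murine IgG2a Fc fusions, antibody binding detected by HRP anti-human IgG Fc and TMB absorbance.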

For experiment [9], the target named is T8, MICA.008.a3.T204-S297.C-terminal insert of N298.G299.S300.mIgG2a.Glyco17 (human; mouse, UniProt Q29983 204-297, engineered N-linked glycosylation site at inserted N298).
T8 construct: not shown: murine IgG2a Fc
T8 chain: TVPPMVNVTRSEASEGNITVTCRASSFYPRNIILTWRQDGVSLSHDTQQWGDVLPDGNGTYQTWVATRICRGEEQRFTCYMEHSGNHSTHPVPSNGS
The experiment can be described thus: ELISA, coated variant.

For experiment [10], the target named is T9, MICA002.His (human MICA*002 alpha 3 domain, His tagged) (human).
T9 construct: also called huMICA*002 alpha 3-his
T9 chain: T1 chain with C12R, V15A, S28G, R32W, T37S, N48D, R72C, G90S
The experiment can be described thus: SPR, antibody captured. (In general: SPR reads the build-up and loss of mass on a sensor chip optically.)

Experiment [11] concerns the target T10, MICA008.His (human MICA*008 alpha 3 domain, His tagged) (human).
T10 construct: Also used for FPOP (expressed in CHO); also called huMICA*008 alpha 3-his; MICA*008 a3
T10 chain: T1 chain with C12R, V15A, T35I, N48D, R72C, Q73R, G90S
The experiment can be described thus: SPR, antibody captured.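 Note: SPR with antibody held by surface-bound anti-Fc while His-tagged alpha three domains flow over, Kd derived by fitting a one-to-one binding model to sensograms.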

The target in experiment [12] is T11, MICA004.His (human MICA*004 alpha 3 domain, His tagged) (human).
T11 construct: also called huMICA*004 alpha 3-his
T11 chain: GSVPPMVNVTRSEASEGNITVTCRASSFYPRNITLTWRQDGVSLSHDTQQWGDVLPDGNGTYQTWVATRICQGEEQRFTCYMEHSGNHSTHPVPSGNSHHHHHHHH
The experiment can be described thus: SPR, antibody captured.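 Note: SPR with antibody held by surface-bound anti-Fc while His-tagged alpha three domains flow over, Kd derived by fitting a one-to-one binding model to sensograms.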

In experiment [13] the target is MICB*005 on HCC1534 cells (human). The experiment can be described thus: cell-based or functional assay.
Experiment [14] addresses T12, MICA*008 on MEL-JUSO cells (human, UniProt Q29983 24-317).
T12 chain: T2 chain
The experiment can be described thus: cell-based or functional assay.

In experiment [15] the target is T13, MICA*004 on HCC1534 cells (human, UniProt Q29983 24-383). Kind of experiment: cell-based or functional assay. The source holds these as a separate data set.
The target of experiment [16] is T14, huMICA*002 alpha 3-his (human).
T14 construct: whole construct entry: GS, alpha 3 domain, GNS, His8; also called MICA002.His; MICA*002 alpha3 construct
T14 chain: T1 chain with C12R, V15A, S28G, R32W, T37S, N48D, R72C, G90S
The experiment can be described thus: SPR, Biacore 8K, antibody on Protein A chip.

Experiment [17] has as its target T15, huMICA*008 alpha 3-his (human).
T15 construct: whole construct entry: GS, alpha 3 domain (Thr204-Ser297), GNS, His8; also the construct of the FPOP experiment; also called MICA008.His; MICA*008 alpha3 construct
T15 chain: T1 chain with C12R, V15A, T35I, N48D, R72C, Q73R, G90S
The experiment can be described thus: SPR, Biacore 8K, antibody on Protein A chip.

Experiment [18] has as its target T16, huMICA*004 alpha 3-his (human).
T16 construct: whole construct entry: GS, alpha 3 domain, GNS, His8; also called MICA004.His; MICA*004 alpha3 construct
T16 chain: T11 chain
The experiment can be described thus: SPR, Biacore 8K, antibody on Protein A chip.

In experiment [19] the target is T17, huMICB*005 alpha 3-his (human).
T17 construct: whole construct entry: GS, alpha 3 domain, GNS, His8; also called MICB005.His; MICB*005 alpha3 construct
T17 chain: T1 chain
Kind of experiment: SPR, Biacore 8K, antibody on Protein A chip.

Experiment [20] deals with T14, huMICA*002 alpha 3-his. Kind of experiment: 'Affinity (nM)' row of Table 17; method not stated.
Experiment [21] addresses T16, huMICA*004 alpha 3-his. The experiment can be described thus: 'Affinity (nM)' row of Table 17; method not stated.
For experiment [22], the target named is T17, huMICB*005 alpha 3-his. The experiment can be described thus: 'Affinity (nM)' row of Table 17; method not stated.
Experiment [23] addresses MICB*005 on HCC1534 cells (human). The experiment can be described thus: cell-based or functional assay. The source holds these as a separate data set.
The next experiment concerns the target MICA*002 on PANC-1 cells (human, UniProt Q29983 24-383). The experiment can be described thus: cell-based or functional assay.
Experiment [24] deals with T12, MICA*008 on MEL-JUSO cells. Kind of experiment: cell-based or functional assay.
Experiment [25] addresses T13, MICA*004 on HCC1534 cells. Kind of experiment: cell-based or functional assay. This is another data set of the same source.
For experiment [26], the target named is T15, huMICA*008 alpha 3-his. Kind of experiment: 'Affinity (nM)' row of Table 17; method not stated; MICA*008 allele (column of the MEL-JUSO shedding assay).
The target of experiment [27] is T18, human MICA*008 C273S alpha 3 domain, untagged (crystallography) (human, UniProt Q29983 204-297).
T18 construct: C273S removes the unpaired cysteine; made as the wild-type alpha 3 domain; also called MICA*008 C273S α3 domain
T18 chain: T4 chain with N12E, C70S
Kind of experiment: complex purified by size exclusion, X-ray structure. On the technique in general: Size exclusion chromatography separates by hydrodynamic size, large species first.

B1: 6E12.5 (antibody, V domains shown)
VH: EVQLVESGGGLVKPGGSLKLSCAASGFTFSDYYMYWVRQTPEKRLEWVATISDGITYTYYSDSVRGRFTISRDNAENTLYLQMSSLKSEDTAMYYCSKGGGSTARGALDFWGQGTSVTVSS
VL: DIQMNQSPSSLSASLGDTITITCHASQNIHVWLSWYQQKPGNIPKLLIYGASHLHTGVPSRFSGRGSGTGFTLTISSLQPEDIATYYCLQGQSYPLTFGSGTKVEIK
notes: Mouse hybridoma antibody; constant regions differ by assay
Turning to B1, the binding result in experiment [1], in experiment [4], in experiment [5], in experiment [6], in experiment [7] and in experiment [8] was “binds” each time. Further, the binding result in [9] was “binds”. Moreover, the “% max inhibition of shedding” value in [2] worked out at 37%; in experiment [3], 28%. Besides, the entries for the “EC50 of shedding inhibition” value in experiment [2] and in experiment [3] were 0.329 µg/mL and 0.074 µg/mL, respectively. Moreover, the Kd in experiment [10] is 4500 pM; in experiment [11] it was 15100 pM; in [12], 3000 pM.

B2: 1D5 (antibody, V domains shown)
VH: EIQLQQSGPELVKPGASVKVSCKASGYAFTSQNIYWVKQSHGKSLEWIGYIEPYNVVPMYNPKFKGKATLTVDKSSSSAYIHLNSLTSEDSAIYYCARSGSSNFDYWGQGTTLTVSS
VL: EIILTQSPTTMAASPGEKITITCSASSSISSHYLHWYQQKSGFSPKLLIYRTSNLASGVPARFSGSGSGTSYSLTIGTMEAEDVATYYCQQGSSLPLTFGAGTKVEIK
notes: mouse variable domains; also called anti-MIC 1D5
Turning to B2, the “% Inhibition” value in [13] amounted to 49%; in experiment [14] it was 69%; in experiment [15], 52%. The Kd worked out at 830 pM with huMICA*002 alpha 3-his [16]; 610 pM with huMICA*008 alpha 3-his [17]; 630 pM in the experiment with huMICA*004 alpha 3-his [18]; 950 pM with huMICB*005 alpha 3-his [19]; 820 pM with huMICA*002 alpha 3-his [20]; 560 pM with huMICA*004 alpha 3-his [21]. Besides, the figures for the Kd with huMICB*005 alpha 3-his [22] and with huMICA*008 alpha 3-his [26] were 2280 pM and 540 pM, respectively. The “IC50 (mg/mL), cell shedding assay” value in experiment [23] came to 0.0293 mg/mL; with MICA*002 on PANC-1 cells it was 0.0291 mg/mL; in experiment [24] it was 0.00823 mg/mL; in experiment [25], 0.0247 mg/mL. The “Max inhibition, cell shedding assay” value in experiment [23] was determined as 52%; in the experiment with MICA*002 on PANC-1 cells, 53%; in experiment [24] it was 81%; in [25] it was 70%.

B3: 6E1.1.12 Fab (Fab, V domains shown)
VH: QGQMQQSGAELVKPGASVKLSCKTSGFTFSDNYISWLKQKPGQSLEWIAWIYAGTGGSSYNQKFRDKAQLTVDTSSRTAYMQLSSLTTEDSAIYYCARHDYYGTSGAWFAYWGRGTLVTVSA
VL: DVLMTQTPLSLPVSLGDQASISCRSSQHIVHSNENTYLEWYLQKPGQSPKLLIYKVSNRFSGVPDRFSGSGSGTDFTLKISRVEAEDLGVYYCFQGSHVPWTFGGGTKVEIK
notes: Expressed in E. coli; the fraction with glutamine (not pyroglutamate) at the heavy chain N-terminus was crystallised; also called 6E1 Fab; not shown: human IgG1 CH1 constant domain; human kappa CL constant domain
B3: the binding result in experiment [27] was “binds”.
